How the values were obtained:
human CXCR2 = target: T1, human CXCR2 (human, UniProt P25025 1-360); experiment: FACS, Cf2th-human CXCR2 cells
T1 construct: whole, on cells; Cf2th cells
T1 sequence (looked up): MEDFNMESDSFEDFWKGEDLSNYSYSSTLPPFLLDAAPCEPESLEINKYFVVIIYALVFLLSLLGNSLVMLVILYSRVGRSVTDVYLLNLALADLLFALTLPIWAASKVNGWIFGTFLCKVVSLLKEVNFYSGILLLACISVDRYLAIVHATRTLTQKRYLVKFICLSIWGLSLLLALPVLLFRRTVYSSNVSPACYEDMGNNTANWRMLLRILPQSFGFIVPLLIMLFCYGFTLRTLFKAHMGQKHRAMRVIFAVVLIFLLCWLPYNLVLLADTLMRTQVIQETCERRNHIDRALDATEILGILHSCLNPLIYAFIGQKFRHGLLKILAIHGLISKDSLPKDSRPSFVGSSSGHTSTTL
Procedure: (§1) In more details, the cell staining procedure was: […] cell suspension in 10 μl FACS buffer (1×PBS, 2.0% FBS, 0.2% sodium azide) was mixed with 10 μl of 200 nM the corresponding anti-CCR7 MAB and incubated on ice for 30 min. Washing step—after the incubation 150 μl of FACS buffer was added to the cell sample, the samples were mixed gently by up-down pipetting the cell suspension. Then the samples were centrifuged at 1100 rpm for 5 minutes, and supernatants were removed. Washing step was repeated ones. Then 10 μl of anti-human PE-(Fab)2 form Jackson Immuno Research Lab. #709-116-098 diluted 40 times in FACS buffer were added to the cells and the cells were re-suspended by up-down pipetting. After 20 min. incubation on ice in dark the washing step was repeated twice. The washed cells were mixed with 100 μl of FIX buffer (0.5% Paraformaldehyde solution in PBS). Fixed samples were stored in dark on ice and analyzed by FACS on Guava PCA-96 flow cytometer. The fluorescent signals collected from individual cells were obtained using fluorescence Activated Cell Sorter (FACS).

cyno CXCR3 = target: T2, cyno CXCR3 (cynomolgus monkey, UniProt A0A2K5UV19 1-368); experiment: FACS, CHO-cyno CXCR3 cells
T2 construct: whole, on cells; CHO cells
T2 sequence: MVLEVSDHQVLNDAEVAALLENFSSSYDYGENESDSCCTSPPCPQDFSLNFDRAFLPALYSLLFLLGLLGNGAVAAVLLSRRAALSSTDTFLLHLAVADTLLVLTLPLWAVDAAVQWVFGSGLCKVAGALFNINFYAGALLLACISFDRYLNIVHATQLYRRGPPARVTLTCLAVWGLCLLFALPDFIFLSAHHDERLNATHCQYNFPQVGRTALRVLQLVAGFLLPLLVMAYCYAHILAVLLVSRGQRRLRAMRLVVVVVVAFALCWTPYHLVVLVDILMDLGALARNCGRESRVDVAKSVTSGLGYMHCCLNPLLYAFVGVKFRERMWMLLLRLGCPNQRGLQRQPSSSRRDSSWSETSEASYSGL
Procedure: as §1

human CXCR1 = target: T3, human CXCR1 (human, UniProt P25024 1-350); experiment: FACS, R1610-human CXCR1 cells
T3 construct: whole, on cells; R1610 cells
T3 sequence (looked up): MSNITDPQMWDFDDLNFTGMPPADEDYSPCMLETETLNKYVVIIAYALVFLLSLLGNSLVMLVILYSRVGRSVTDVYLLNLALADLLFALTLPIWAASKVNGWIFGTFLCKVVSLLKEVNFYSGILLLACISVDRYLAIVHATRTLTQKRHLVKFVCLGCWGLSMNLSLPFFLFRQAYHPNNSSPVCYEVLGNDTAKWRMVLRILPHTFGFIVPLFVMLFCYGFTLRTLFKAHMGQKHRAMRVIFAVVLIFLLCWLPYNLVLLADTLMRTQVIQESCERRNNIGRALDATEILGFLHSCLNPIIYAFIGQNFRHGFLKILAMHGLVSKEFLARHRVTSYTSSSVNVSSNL
Procedure: as §1

human CCR3 = target: T4, human CCR3 (human, UniProt P51677 1-355); experiment: FACS, CHO-human CCR3 cells
T4 construct: whole, on cells; CHO cells
T4 sequence (looked up): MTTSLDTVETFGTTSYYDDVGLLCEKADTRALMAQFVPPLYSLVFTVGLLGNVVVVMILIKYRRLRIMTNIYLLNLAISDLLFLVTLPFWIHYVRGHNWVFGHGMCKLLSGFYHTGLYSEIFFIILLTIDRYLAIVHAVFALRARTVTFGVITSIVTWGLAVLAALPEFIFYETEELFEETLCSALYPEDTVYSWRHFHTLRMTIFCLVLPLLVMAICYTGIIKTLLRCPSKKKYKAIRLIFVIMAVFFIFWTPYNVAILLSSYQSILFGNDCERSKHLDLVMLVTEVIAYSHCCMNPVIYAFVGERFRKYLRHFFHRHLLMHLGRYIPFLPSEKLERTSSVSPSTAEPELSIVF
Procedure: as §1

human CCR9 = target: T5, human CCR9 (human, UniProt P51686 1-369); experiment: FACS, R1610-human CCR9 cells
T5 construct: whole, on cells; R1610 cells
T5 sequence (looked up): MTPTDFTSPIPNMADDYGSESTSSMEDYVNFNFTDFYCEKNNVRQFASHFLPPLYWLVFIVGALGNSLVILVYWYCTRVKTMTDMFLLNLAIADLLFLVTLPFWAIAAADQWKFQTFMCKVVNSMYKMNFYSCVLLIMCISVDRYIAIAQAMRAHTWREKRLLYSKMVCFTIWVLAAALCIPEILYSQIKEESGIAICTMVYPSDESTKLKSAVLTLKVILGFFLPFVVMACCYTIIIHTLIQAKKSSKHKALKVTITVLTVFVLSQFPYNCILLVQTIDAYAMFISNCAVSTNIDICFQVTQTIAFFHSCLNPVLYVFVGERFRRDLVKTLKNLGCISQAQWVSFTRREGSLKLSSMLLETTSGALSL
Procedure: as §1

B1: MSM-R735 (fully human anti-human CCR7 antibody, IgG1) (antibody)
heavy: not shown
light: EIVLTQSPGTLSLSPGERATLSCRASQSVSSSYLAWYQQKPGQAPRLLIYGASSRATGIPDRFSGSGSGTDFTLTISRLEPEDFAVYYCQQGSPVTFGQGTKVEIKRTVAAPSVFIFPPSDEQLKSGTASVVCLLNNFYPREAKVQWKVDNALQSGNSQESVTEQDSKDSTYSLSSTLTLSKADYEKHKVYACEVTHQGLSSPVTKSFNRGEC
notes: IgG1 format; also called R735 Human IgG1
- binding result (human CXCR2): no binding (tested: 200 nM MAB mixed 1:1 with cells)
- binding result (cyno CXCR3): no binding (tested: 200 nM MAB mixed 1:1 with cells)
- binding result (human CXCR1): no binding (tested: 200 nM MAB mixed 1:1 with cells)
- binding result (human CCR3): no binding (tested: 200 nM MAB mixed 1:1 with cells)
- binding result (human CCR9): no binding (tested: 200 nM MAB mixed 1:1 with cells)

B2: MSM-R710 (fully human anti-human CCR7 antibody, IgG1) (antibody, V domains shown)
VH: EVQLLESGGGLVQPGGSLRLSCAASGFTFSNYTMHWVRQAPGKGLEWVSGIGPRSGRTYYADSVKGRFTISRDNSKNTLYLQMNSLRAEDTAVYYCARSYAYQYRGFDYWGQGTLVTVSS
VL: EIVLTQSPGTLSLSPGERATLSCRASQSVSSSYLAWYQQKPGQAPRLLIYGASSRATGIPDRFSGSGSGTDFTLTISRLEPEDFAVYYCQSSVTFGQGTKVEIKR
notes: IgG1 format
- binding result (human CXCR2): no binding (tested: 200 nM MAB mixed 1:1 with cells)
- binding result (cyno CXCR3): no binding (tested: 200 nM MAB mixed 1:1 with cells)
- binding result (human CXCR1): no binding (tested: 200 nM MAB mixed 1:1 with cells)
- binding result (human CCR3): no binding (tested: 200 nM MAB mixed 1:1 with cells)
- binding result (human CCR9): no binding (tested: 200 nM MAB mixed 1:1 with cells)

From US20150344580A1 (MSM PROTEIN TECHNOLOGIES, published 2015)
